Consider one substance from US20210063414A1, “METHODS FOR PREVENTING AND/OR TREATING BONE LOSS CONDITIONS BY MODULATING IRISIN” (Dana-Farber Cancer Institute, Inc., priority 2018, published 2021).

Assay in all cases: Crosslinking/co-immunoprecipitation/mass spectrometry (TMT quantitative proteomics) to identify irisin receptors
Type in all cases: binding

The target in test [1] is T1, MLO-Y4 cell surface proteins (Mus musculus, UniProt Q6ZQ93).
T1 construct: endogenous in cells; host or cells: MLO-Y4
T1 sequence (Q6ZQ93 whole entry): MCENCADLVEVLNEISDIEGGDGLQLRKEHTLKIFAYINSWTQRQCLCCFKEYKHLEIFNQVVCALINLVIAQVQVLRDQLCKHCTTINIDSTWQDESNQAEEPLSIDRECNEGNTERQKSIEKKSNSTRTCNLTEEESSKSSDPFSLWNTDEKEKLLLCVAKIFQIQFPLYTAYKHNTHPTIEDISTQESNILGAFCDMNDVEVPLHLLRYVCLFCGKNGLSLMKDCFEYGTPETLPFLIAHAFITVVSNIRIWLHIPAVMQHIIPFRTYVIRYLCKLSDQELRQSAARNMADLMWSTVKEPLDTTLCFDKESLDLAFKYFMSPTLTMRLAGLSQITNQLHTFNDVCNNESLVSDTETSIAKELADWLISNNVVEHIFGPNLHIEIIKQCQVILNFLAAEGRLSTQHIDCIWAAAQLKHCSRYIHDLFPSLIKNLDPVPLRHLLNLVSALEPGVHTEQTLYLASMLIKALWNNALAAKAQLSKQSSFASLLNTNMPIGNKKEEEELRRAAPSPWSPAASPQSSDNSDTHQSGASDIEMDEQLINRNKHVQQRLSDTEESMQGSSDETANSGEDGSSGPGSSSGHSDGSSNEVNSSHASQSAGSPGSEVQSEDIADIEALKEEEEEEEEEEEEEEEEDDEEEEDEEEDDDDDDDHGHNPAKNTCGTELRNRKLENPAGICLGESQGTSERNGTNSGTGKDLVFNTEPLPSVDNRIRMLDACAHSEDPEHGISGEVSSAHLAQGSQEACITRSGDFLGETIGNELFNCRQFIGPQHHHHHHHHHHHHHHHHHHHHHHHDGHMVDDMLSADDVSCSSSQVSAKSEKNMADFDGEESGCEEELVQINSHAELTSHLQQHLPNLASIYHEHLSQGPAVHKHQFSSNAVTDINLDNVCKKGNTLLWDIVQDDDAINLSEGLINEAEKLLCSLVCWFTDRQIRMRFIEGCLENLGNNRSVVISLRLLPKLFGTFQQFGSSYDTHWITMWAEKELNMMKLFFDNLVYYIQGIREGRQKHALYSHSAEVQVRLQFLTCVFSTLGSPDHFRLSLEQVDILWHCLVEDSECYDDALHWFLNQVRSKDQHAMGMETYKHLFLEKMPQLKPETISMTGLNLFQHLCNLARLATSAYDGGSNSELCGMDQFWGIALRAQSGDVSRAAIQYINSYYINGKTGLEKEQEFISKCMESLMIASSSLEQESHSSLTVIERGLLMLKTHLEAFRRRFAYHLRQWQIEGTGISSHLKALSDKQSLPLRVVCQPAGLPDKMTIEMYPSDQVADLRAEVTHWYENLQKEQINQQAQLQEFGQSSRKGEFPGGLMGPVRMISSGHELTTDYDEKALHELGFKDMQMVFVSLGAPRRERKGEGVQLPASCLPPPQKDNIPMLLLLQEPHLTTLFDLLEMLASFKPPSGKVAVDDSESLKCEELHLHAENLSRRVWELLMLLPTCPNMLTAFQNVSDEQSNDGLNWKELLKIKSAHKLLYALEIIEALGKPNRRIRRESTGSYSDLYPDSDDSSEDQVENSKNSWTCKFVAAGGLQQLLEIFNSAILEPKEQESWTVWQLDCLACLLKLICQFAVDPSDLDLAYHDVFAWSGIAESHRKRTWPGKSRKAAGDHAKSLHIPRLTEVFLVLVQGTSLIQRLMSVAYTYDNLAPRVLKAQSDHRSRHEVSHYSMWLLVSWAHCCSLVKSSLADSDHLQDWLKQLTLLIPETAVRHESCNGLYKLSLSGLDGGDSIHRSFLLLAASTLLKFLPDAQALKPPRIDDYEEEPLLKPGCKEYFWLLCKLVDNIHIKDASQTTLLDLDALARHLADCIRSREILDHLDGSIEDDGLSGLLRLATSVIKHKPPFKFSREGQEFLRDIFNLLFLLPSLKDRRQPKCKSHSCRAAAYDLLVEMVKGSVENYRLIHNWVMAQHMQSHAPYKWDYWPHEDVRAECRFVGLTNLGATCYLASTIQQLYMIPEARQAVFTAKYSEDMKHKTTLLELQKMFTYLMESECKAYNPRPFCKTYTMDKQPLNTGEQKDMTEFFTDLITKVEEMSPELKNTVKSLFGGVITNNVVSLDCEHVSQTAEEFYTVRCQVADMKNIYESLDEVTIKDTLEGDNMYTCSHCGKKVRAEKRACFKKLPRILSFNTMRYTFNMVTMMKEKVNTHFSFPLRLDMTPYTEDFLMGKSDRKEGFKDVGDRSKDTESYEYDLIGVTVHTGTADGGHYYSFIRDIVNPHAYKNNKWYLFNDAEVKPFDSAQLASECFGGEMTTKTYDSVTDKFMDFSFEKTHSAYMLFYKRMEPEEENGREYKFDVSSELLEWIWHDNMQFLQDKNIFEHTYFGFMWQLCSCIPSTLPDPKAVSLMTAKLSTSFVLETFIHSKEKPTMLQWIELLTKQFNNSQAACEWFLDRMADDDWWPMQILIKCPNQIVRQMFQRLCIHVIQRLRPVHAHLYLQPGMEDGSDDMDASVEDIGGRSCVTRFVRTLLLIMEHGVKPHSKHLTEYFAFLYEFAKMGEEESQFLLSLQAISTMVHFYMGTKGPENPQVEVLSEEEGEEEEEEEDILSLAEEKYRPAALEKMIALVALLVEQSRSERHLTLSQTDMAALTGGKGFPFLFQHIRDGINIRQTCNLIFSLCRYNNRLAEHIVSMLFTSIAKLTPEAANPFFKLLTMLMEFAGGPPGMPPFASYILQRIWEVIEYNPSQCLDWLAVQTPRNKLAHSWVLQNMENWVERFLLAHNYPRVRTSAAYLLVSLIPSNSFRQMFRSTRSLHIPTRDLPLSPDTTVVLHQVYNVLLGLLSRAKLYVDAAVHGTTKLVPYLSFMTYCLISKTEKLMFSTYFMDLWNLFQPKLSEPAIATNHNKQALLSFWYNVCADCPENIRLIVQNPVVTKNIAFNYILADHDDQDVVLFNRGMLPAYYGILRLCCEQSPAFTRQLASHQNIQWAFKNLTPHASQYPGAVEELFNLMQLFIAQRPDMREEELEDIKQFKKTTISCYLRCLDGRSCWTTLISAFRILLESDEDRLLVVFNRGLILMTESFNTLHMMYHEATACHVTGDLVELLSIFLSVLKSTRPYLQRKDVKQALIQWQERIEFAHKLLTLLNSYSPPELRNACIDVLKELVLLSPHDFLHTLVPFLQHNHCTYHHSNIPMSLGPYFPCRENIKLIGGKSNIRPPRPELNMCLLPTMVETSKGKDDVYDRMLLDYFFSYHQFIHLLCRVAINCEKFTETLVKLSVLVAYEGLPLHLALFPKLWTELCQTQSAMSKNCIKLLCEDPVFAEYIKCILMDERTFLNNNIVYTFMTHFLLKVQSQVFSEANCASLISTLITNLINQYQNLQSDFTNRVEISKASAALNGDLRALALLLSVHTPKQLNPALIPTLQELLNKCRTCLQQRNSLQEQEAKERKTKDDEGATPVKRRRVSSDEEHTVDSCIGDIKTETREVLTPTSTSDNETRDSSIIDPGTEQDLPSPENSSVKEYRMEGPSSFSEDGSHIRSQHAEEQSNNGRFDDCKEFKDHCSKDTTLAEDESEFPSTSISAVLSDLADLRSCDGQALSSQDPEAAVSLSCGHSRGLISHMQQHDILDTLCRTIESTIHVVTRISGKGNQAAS
As to conditions: co-precipitated protein Usp34 (UBP34_MOUSE). In short, it runs like this: (§1)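 Relative protein abundance came from 6-plex TMT MS3 quantitation on an Orbitrap Fusion Lumos, after in-gel trypsin digestion of Coomassie-stained SDS-PAGE lanes. Input was a Ni-NTA pulldown (250 mM imidazole elution) of lysates from murine MLO-Y4 cells. These cells were treated on ice with His-tagged irisin or adipsin (10 nM, 20 min) in serum-free medium, then crosslinked with 1.5 mM DTSSP for 30 min.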

Test [2] addresses T2, MLO-Y4 cell surface proteins (Mus musculus, UniProt P97350).
T2 construct: endogenous in cells; host or cells: MLO-Y4
T2 sequence (P97350 1-728): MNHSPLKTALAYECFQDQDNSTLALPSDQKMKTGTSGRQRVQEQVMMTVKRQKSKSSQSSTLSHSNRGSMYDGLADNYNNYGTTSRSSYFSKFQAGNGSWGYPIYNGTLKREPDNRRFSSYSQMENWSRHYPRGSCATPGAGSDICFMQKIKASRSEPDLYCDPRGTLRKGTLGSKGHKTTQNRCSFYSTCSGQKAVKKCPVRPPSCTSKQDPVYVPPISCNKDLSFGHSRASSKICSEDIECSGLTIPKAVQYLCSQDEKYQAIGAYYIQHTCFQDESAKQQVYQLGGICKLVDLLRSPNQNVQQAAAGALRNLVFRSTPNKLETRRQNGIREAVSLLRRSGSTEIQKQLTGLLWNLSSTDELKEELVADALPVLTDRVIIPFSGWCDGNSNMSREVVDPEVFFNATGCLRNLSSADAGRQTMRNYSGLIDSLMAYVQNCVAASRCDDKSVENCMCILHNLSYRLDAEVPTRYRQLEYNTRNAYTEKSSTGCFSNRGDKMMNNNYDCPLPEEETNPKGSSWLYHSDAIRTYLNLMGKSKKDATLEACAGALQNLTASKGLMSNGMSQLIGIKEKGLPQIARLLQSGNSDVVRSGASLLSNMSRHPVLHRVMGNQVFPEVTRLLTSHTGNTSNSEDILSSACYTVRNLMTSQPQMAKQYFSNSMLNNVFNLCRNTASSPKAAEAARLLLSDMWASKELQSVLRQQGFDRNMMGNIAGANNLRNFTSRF
As to conditions: co-precipitated protein Pkp1 (PKP1_MOUSE). A digest of the protocol: as §1

Test [3] has as its target T3, MLO-Y4 cell surface proteins (Mus musculus, UniProt P48997).
T3 construct: endogenous in cells; host or cells: MLO-Y4
T3 sequence (P48997 1-467): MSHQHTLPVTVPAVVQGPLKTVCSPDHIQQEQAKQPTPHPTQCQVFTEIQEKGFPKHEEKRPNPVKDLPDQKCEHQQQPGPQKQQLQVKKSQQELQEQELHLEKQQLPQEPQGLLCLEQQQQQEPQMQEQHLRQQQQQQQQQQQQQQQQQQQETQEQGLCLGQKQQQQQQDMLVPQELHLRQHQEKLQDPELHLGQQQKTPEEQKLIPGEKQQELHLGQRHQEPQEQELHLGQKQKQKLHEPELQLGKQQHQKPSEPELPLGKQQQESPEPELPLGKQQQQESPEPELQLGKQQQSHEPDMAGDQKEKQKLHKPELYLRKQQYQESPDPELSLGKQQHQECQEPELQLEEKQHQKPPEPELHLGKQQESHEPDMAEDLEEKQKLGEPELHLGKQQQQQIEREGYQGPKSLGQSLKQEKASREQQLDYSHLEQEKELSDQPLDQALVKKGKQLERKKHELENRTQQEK
As to conditions: co-precipitated protein Ivl (INVO_MOUSE). In short, it runs like this:
as §1

As to adipsin, the TMT signal-to-noise ratio in test [1] was 1044.49; in test [2], 98.2846; in test [3], 222.079.
